B1: TSN (parent)
chain: AFVVYLETETLVTREAVTEILGIE
B2: MGC27345 (parent)
chain: KYMPHLCQDSSGEVSCQCQLHPPR
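Further: lentivirally expressed fusions sorted by FACS into six bins by GFP to DsRed ratio, PSI derived from sequencing read proportions per bin multiplied by bin number.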

Variants of B1 are the subject of one series. Briefly: protein stability index of a GFP-peptide fusion (GPS, HEK-293T) (PSI 1-6); higher = more stable. As to conditions: c terminus: a fixed tail appended.
Take AFVVYLETETLVTREAVTEIWGIE [L21W]: the protein stability index came out at 2.52.
Take AFVVYLETETLVTREAVTEIYGIE [L21Y]: the protein stability index is 2.1.
As for AFVVYLETETLVTREAVTEILGDE [I23D], the protein stability index came to 1.42.
For AFVVYLETETLVTREAVTEILGKE [I23K], the protein stability index is 1.55.
As for AFVVYLETETLVTREAVTEILGLE [I23L], the protein stability index was 2.26.
Same read-out and setting: next, AFVVYLETETLVTREAVTEILGVE [I23V]: 3.69.
Regarding AFVVYLETETLVTREAVTEILGFE [I23F], the protein stability index was found to be 2.36.
Same read-out and setting: next, AFVVYLETETLVTREAVTEILGQE [I23Q]: 1.69.
As to AFVVYLETETLVTREAVTEILGCE [I23C], the protein stability index is 1.7.
On the same count and under the same terms, next, AFVVYLETETLVTREAVTEILGWE [I23W]: 1.79.
As to AFVVYLETETLVTREAVTEILGTE [I23T], the protein stability index was 1.79.
Turning to AFVVYLETETLVTREAVTEILGNE [I23N], the protein stability index was found to be 3.34.
As to AFVVYLETETLVTREAVTEILGHE [I23H], the protein stability index is 2.75.
AFVVYLETETLVTREAVTEILGAE [I23A]: the protein stability index is 1.8.
For the variant AFVVYLETETLVTREAVTEILGEE [I23E], the protein stability index was 2.03.
Turning to AFVVYLETETLVTREAVTEILGYE [I23Y], the protein stability index came out at 3.36.
In the case of AFVVYLETETLVTREAVTEILFIE [G22F], the protein stability index amounted to 3.47.
Consider AFVVYLETETLVTREAVTEILPIE [G22P], for which the protein stability index was found to be 2.86.
Consider AFVVYLETETLVTREAVTEILDIE [G22D], for which the protein stability index was 3.2.
Consider AFVVYLETETLVTREAVTEILYIE [G22Y], for which the protein stability index worked out at 3.71.
With AFVVYLETETLVTREAVTEILSIE [G22S], the protein stability index amounted to 1.86.
With AFVVYLETETLVTREAVTEILEIE [G22E], the protein stability index turned out to be 2.82.
Same read-out and setting: next, AFVVYLETETLVTREAVTEILKIE [G22K]: 1.74; AFVVYLETETLVTREAVTEILRIE [G22R]: 3.49; AFVVYLETETLVTREAVTEILNIE [G22N]: 2.33.
Take AFVVYLETETLVTREAVTEILHIE [G22H]: the protein stability index amounted to 3.32.
For AFVVYLETETLVTREAVTEILVIE [G22V], the protein stability index worked out at 2.04.
On to AFVVYLETETLVTREAVTEILAIE [G22A], for which the protein stability index turned out to be 3.71.
Turning to AFVVYLETETLVTREAVTEILGIV [E24V], the protein stability index was found to be 2.23.
AFVVYLETETLVTREAVTEILGIS [E24S]: the protein stability index is 2.53.
As for AFVVYLETETLVTREAVTEILGID [E24D], the protein stability index was found to be 2.34.
Still for that read-out and setting: next, AFVVYLETETLVTREAVTEILGII [E24I]: 3.19; AFVVYLETETLVTREAVTEILGIF [E24F]: 2.03; AFVVYLETETLVTREAVTEILGIA [E24A]: 3.43.
Consider AFVVYLETETLVTREAVTEILGIQ [E24Q], for which the protein stability index worked out at 3.13.
With AFVVYLETETLVTREAVTEILGIW [E24W], the protein stability index is 1.53.
Take AFVVYLETETLVTREAVTEILGIR [E24R]: the protein stability index was determined as 2.27.
Consider AFVVYLETETLVTREAVTEILGIL [E24L], for which the protein stability index is 3.3.
On to AFVVYLETETLVTREAVTEILGIK [E24K], for which the protein stability index came out at 3.34.
Same read-out and setting: next, AFVVYLETETLVTREAVTEILGIC [E24C]: 3.31.
As for AFVVYLETETLVTREAVTEILGIG [E24G], the protein stability index stood at 2.84.

The variants in another series derive from B2. Described as above. As to conditions: c terminus: a fixed tail appended.
For the variant KYMPHLCNDSSGEVSCQCQLHPPR [Q8N], the protein stability index was 2.54.
Same read-out and setting: next, KYMPHLCDDSSGEVSCQCQLHPPR [Q8D]: 2.6; KYMPHLCYDSSGEVSCQCQLHPPR [Q8Y]: 1.7; KYMPHLCWDSSGEVSCQCQLHPPR [Q8W]: 2.65.
KYMPHLCHDSSGEVSCQCQLHPPR [Q8H]: the protein stability index is 2.03.
In the case of KYMPHLCIDSSGEVSCQCQLHPPR [Q8I], the protein stability index is 2.38.
With KYMPHLCCDSSGEVSCQCQLHPPR [Q8C], the protein stability index amounted to 2.53.
KYMPHLCFDSSGEVSCQCQLHPPR [Q8F]: the protein stability index came out at 2.38.
For KYMPHLCPDSSGEVSCQCQLHPPR [Q8P], the protein stability index was 2.15.
On the same count and under the same terms, next, KYMPHLCADSSGEVSCQCQLHPPR [Q8A]: 2.65; KYMPHLCGDSSGEVSCQCQLHPPR [Q8G]: 2.42.
On to KYMPHLCEDSSGEVSCQCQLHPPR [Q8E], for which the protein stability index worked out at 1.97.
Still for that read-out and setting: next, KYMPHLCLDSSGEVSCQCQLHPPR [Q8L]: 1.77; KYMPHLCTDSSGEVSCQCQLHPPR [Q8T]: 3.04; KYMPHLCVDSSGEVSCQCQLHPPR [Q8V]: 2.73.
On the same count and under the same terms, next, KYMPHLCRDSSGEVSCQCQLHPPR [Q8R]: 2.83.
For KYMPHLCMDSSGEVSCQCQLHPPR [Q8M], the protein stability index worked out at 2.83.
PYMPHLCQDSSGEVSCQCQLHPPR [K1P]: the protein stability index is 2.16.
Still for that read-out and setting: next, RYMPHLCQDSSGEVSCQCQLHPPR [K1R]: 2.24; QYMPHLCQDSSGEVSCQCQLHPPR [K1Q]: 2.
For the variant AYMPHLCQDSSGEVSCQCQLHPPR [K1A], the protein stability index stood at 1.82.
In the case of IYMPHLCQDSSGEVSCQCQLHPPR [K1I], the protein stability index came out at 1.98.
As to EYMPHLCQDSSGEVSCQCQLHPPR [K1E], the protein stability index was found to be 2.06.
In the case of SYMPHLCQDSSGEVSCQCQLHPPR [K1S], the protein stability index stood at 2.65.
Turning to NYMPHLCQDSSGEVSCQCQLHPPR [K1N], the protein stability index is 1.73.
Take YYMPHLCQDSSGEVSCQCQLHPPR [K1Y]: the protein stability index was 1.92.
For the variant DYMPHLCQDSSGEVSCQCQLHPPR [K1D], the protein stability index worked out at 2.56.
Turning to VYMPHLCQDSSGEVSCQCQLHPPR [K1V], the protein stability index was 2.43.
In the case of LYMPHLCQDSSGEVSCQCQLHPPR [K1L], the protein stability index was 2.48.
With GYMPHLCQDSSGEVSCQCQLHPPR [K1G], the protein stability index came out at 2.25.
Regarding HYMPHLCQDSSGEVSCQCQLHPPR [K1H], the protein stability index stood at 2.13.
Regarding MYMPHLCQDSSGEVSCQCQLHPPR [K1M], the protein stability index was 3.73.
On the same count and under the same terms, next, CYMPHLCQDSSGEVSCQCQLHPPR [K1C]: 3.03; FYMPHLCQDSSGEVSCQCQLHPPR [K1F]: 1.6; TYMPHLCQDSSGEVSCQCQLHPPR [K1T]: 1.9.
As for KYMPELCQDSSGEVSCQCQLHPPR [H5E], the protein stability index worked out at 2.3.
Consider KYMPNLCQDSSGEVSCQCQLHPPR [H5N], for which the protein stability index came out at 1.64.
Take KYMPFLCQDSSGEVSCQCQLHPPR [H5F]: the protein stability index is 1.34.
Still for that read-out and setting: next, KYMPQLCQDSSGEVSCQCQLHPPR [H5Q]: 2.6; KYMPTLCQDSSGEVSCQCQLHPPR [H5T]: 2.21.
On to KYMPPLCQDSSGEVSCQCQLHPPR [H5P], for which the protein stability index turned out to be 2.27.
On to KYMPALCQDSSGEVSCQCQLHPPR [H5A], for which the protein stability index came out at 1.8.
Consider KYMPCLCQDSSGEVSCQCQLHPPR [H5C], for which the protein stability index stood at 2.92.
In the case of KYMPYLCQDSSGEVSCQCQLHPPR [H5Y], the protein stability index was 1.98.
Regarding KYMPMLCQDSSGEVSCQCQLHPPR [H5M], the protein stability index was 2.15.
Still for that read-out and setting: next, KYMPSLCQDSSGEVSCQCQLHPPR [H5S]: 1.89.
With KYMPWLCQDSSGEVSCQCQLHPPR [H5W], the protein stability index was determined as 3.69.
KYMPRLCQDSSGEVSCQCQLHPPR [H5R]: the protein stability index came to 2.57.
In the case of KYMPGLCQDSSGEVSCQCQLHPPR [H5G], the protein stability index amounted to 1.45.
In the case of KYMPDLCQDSSGEVSCQCQLHPPR [H5D], the protein stability index amounted to 1.66.
Turning to KYMPILCQDSSGEVSCQCQLHPPR [H5I], the protein stability index stood at 1.49.
KYMPVLCQDSSGEVSCQCQLHPPR [H5V]: the protein stability index is 2.22.
Consider KYMPHICQDSSGEVSCQCQLHPPR [L6I], for which the protein stability index is 2.23.

The values above are taken from the supplement of paper PMC10567573.
